Residue numbers refer to the chain shown, from its start.

In US20240327535A1 (EISAI R AND D MANAGEMENT, published 2024) one finds Kd data, which are given here for 37 molecules.

B1: AB200-R1H32-R2Vk33 (Fab, V domains shown)
VH: QVQLVQSGAEVKKPGSSVKVSCKASGGTFSNYWMHWVRQAPGQGLEWMGATYRSHSDTYYNQKFKSRVTITADKSTSTAYMELSSLRSEDTAVYYCARGAIYHGYDVIDNWGQGTLVTVSS
VL: DIQMTQSPSSLSASVGDRVTITCRASQSISSYLNWYQQKPGKAPKLLIYATSNLQIGVPSRFSGSGSGTDFTLTISSLQPEDFATYYCQQFRKIPWTFGQGTKLEIKR
B2: AB200-R1H32-R2Vk30 (Fab, V domains shown)
VH: B1 VH
VL: B1 VL with F91Y, K93R
B3: AB200-R1H32-R2Vk43 (Fab, V domains shown)
VH: B1 VH
VL: B1 VL with L33I, L54I, I56S
B4: AB200-R1H32-R2Vk34 (Fab, V domains shown)
VH: B1 VH
VL: B1 VL with L33I, I56S, F91Y, K93R, I94L, T97S
B5: AB200-R1H32-R2Vk44 (Fab, V domains shown)
VH: B1 VH
VL: B1 VL with L33I, F91Y, K93R, I94L, T97S
B6: AB200-R1H32-R2Vk40 (Fab, V domains shown)
VH: B1 VH
VL: B1 VL with L33I, L54I, I56S, F91Y, K93R
B7: AB200-R1H32-R2Vk32 (Fab, V domains shown)
VH: B1 VH
VL: B1 VL with F91Y, T97S
B8: AB200-R1H32-R2Vk37 (Fab, V domains shown)
VH: B1 VH
VL: B1 VL with L33I, I56S, F91Y, T97S
B9: AB200-R1H32-R2Vk25 (Fab, V domains shown)
VH: B1 VH
VL: B1 VL with L54I, I56S, F91Y, K93R
B10: AB200-R1H32-R2Vk38 (Fab, V domains shown)
VH: B1 VH
VL: B1 VL with L33I, I56S
B11: AB200-R1H32-R2Vk26 (Fab, V domains shown)
VH: B1 VH
VL: B1 VL with L54I, I56S, K93R, I94L
B12: AB200-R1H32-R2Vk29 (Fab, V domains shown)
VH: B1 VH
VL: B1 VL with F91Y, K93R, I94L, T97S
B13: AB200-R1a-Fab_VH1 (Fab, V domains shown)
VH: B1 VH with S54G, D57E, Q62E, S66G, I108L, N110D
VL: B1 VL with R24S, S26T, S28D, S31N, A50F, I56S, F91Y, I94L
B14: AB200-R1a-Fab_VH31 (Fab, V domains shown)
VH: B1 VH with A50G, S54G, Y60F, S66G, Y105F, I108L
VL: B1 VL with R24S, S26T, S28D, S31N, A50F, I56S, F91Y, I94L
B15: AB200-R1a-Fab_VH33 (Fab, V domains shown)
VH: B1 VH with S30T, Y32F, S54G, H55Q, S66G, I108L
VL: B1 VL with R24S, S26T, S28D, S31N, A50F, I56S, F91Y, I94L
B16: AB200-R1a-Fab_VH34 (Fab, V domains shown)
VH: B1 VH with W33Y, M34L, S54G, S66G, H103N, I108L
VL: B1 VL with R24S, S26T, S28D, S31N, A50F, I56S, F91Y, I94L
B17: AB200-R1a-Fab_VH51 (Fab, V domains shown)
VH: B1 VH with S54G, Y59N, S66G, A100T, Y105F, I108L
VL: B1 VL with R24S, S26T, S28D, S31N, A50F, I56S, F91Y, I94L
B18: AB200-R1a-Fab_VH13 (Fab, V domains shown)
VH: B1 VH with S54G, D57T, N61A, F64Y, S66G, I108L
VL: B1 VL with R24S, S26T, S28D, S31N, A50F, I56S, F91Y, I94L
B19: AB200-R1a-Fab_VH26 (Fab, V domains shown)
VH: B1 VH with T28S, S54I, Y59F, S66G, I108L
VL: B1 VL with R24S, S26T, S28D, S31N, A50F, I56S, F91Y, I94L
B20: AB200-R1a-Fab_VH24 (Fab, V domains shown)
VH: B1 VH with S30T, S54G, D57N, S66G
VL: B1 VL with R24S, S26T, S28D, S31N, A50F, I56S, F91Y, I94L
B21: AB200-R1a-Fab_VH19 (Fab, V domains shown)
VH: B1 VH with T28S, H35Q, S54G, S66G, A100S, I108L
VL: B1 VL with R24S, S26T, S28D, S31N, A50F, I56S, F91Y, I94L
B22: AB200-R1a-Fab_VH41 (Fab, V domains shown)
VH: B1 VH with S54G, Q62E, S66G, V107I, I108L, D109N
VL: B1 VL with R24S, S26T, S28D, S31N, A50F, I56S, F91Y, I94L
B23: AB200-R1a-Fab_VH5 (Fab, V domains shown)
VH: B1 VH with S54G, T58S, Y59N, Q62N, S66G, I108L
VL: B1 VL with R24S, S26T, S28D, S31N, A50F, I56S, F91Y, I94L
B24: AB200-R1a-Fab_VH30 (Fab, V domains shown)
VH: B1 VH with F29Y, S54G, S56T, S66G, I108M
VL: B1 VL with R24S, S26T, S28D, S31N, A50F, I56S, F91Y, I94L
B25: AB200-R1a-Fab_VH3 (Fab, V domains shown)
VH: B1 VH with H35S, S54G, D57Q, S66G, I101V, I108L
VL: B1 VL with R24S, S26T, S28D, S31N, A50F, I56S, F91Y, I94L
B26: AB200-R1a-Fab_VH15 (Fab, V domains shown)
VH: B1 VH with F29Y, S54G, T58A, K63R, S66G, I108L
VL: B1 VL with R24S, S26T, S28D, S31N, A50F, I56S, F91Y, I94L
B27: AB200-R1a-Fab_VH36 (Fab, V domains shown)
VH: B1 VH with Y52F, S54G, Q62H, S66G, Y105F, I108L
VL: B1 VL with R24S, S26T, S28D, S31N, A50F, I56S, F91Y, I94L
B28: AB200-R1a-Fab_VH17 (Fab, V domains shown)
VH: B1 VH with N31S, S54G, N61A, S66G, D106E, I108L
VL: B1 VL with R24S, S26T, S28D, S31N, A50F, I56S, F91Y, I94L
B29: AB200-R1a-Fab_VH27 (Fab, V domains shown)
VH: B1 VH with S25T, T51I, S54G, K65R, S66G, I108L
VL: B1 VL with R24S, S26T, S28D, S31N, A50F, I56S, F91Y, I94L
B30: AB200-R1a-Fab_VH2 (Fab, V domains shown)
VH: B1 VH with S54G, K65Q, S66G, I101V, Y102F, I108L
VL: B1 VL with R24S, S26T, S28D, S31N, A50F, I56S, F91Y, I94L
B31: AB200-R1a-Fab_VH23 (Fab, V domains shown)
VH: B1 VH with W33Y, S54G, Y59F, N61A, S66G, I108L
VL: B1 VL with R24S, S26T, S28D, S31N, A50F, I56S, F91Y, I94L
B32: AB200-R1a-Fab_VH21 (Fab, V domains shown)
VH: B1 VH with W33A, S54G, H55Q, F64Y, S66G, I108L
VL: B1 VL with R24S, S26T, S28D, S31N, A50F, I56S, F91Y, I94L
B33: AB200-R1a-Fab_VH20 (Fab, V domains shown)
VH: B1 VH with Y52I, S54G, D57Q, K65Q, S66G, I108L
VL: B1 VL with R24S, S26T, S28D, S31N, A50F, I56S, F91Y, I94L
B34: AB200-R1a-Fab_VH4 (Fab, V domains shown)
VH: B1 VH with S25T, S54G, D57N, N61D, S66G, I108L
VL: B1 VL with R24S, S26T, S28D, S31N, A50F, I56S, F91Y, I94L
B35: AB200-R1a-Fab_VH18 (Fab, V domains shown)
VH: B1 VH with R53K, S54G, S66G, K74E, D106E, I108L
VL: B1 VL with R24S, S26T, S28D, S31N, A50F, I56S, F91Y, I94L
B36: AB200-R1a-Fab_VH35 (Fab, V domains shown)
VH: B1 VH with M34I, Y52F, R53K, S54G, S66G, I108L
VL: B1 VL with R24S, S26T, S28D, S31N, A50F, I56S, F91Y, I94L
B37: AB200-R1a-Fab_VH37 (Fab, V domains shown)
VH: B1 VH with S30T, R53K, S54G, K65R, S66G, I108L
VL: B1 VL with R24S, S26T, S28D, S31N, A50F, I56S, F91Y, I94L

One assay deals with T1, extracellular domain of human BCMA (human, UniProt Q02223 1-54).
T1 construct: amine-linked to Octet AR2G tips; also called hsBCMA; BCMA (human)
T1 sequence: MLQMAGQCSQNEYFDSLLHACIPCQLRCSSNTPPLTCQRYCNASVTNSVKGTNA
As to the kind of experiment: Octet BLI; Fab 200 nM.
B1: the Kd turned out to be 0.996 nM.

B2 showed a Kd of 0.816 nM.

For B3, binding was characterised by a dissociation constant (Kd) of 1.29 nM.

Consider B4, for which the Kd came to 1.12 nM.

The molecule B5 had a Kd of 0.71 nM.

Molecule B6 returned a Kd of 1.03 nM.

As for B7, the Kd is 0.873 nM.

On to B8, for which the affinity, expressed as Kd, was 0.85 nM.

As for B9, the Kd turned out to be 1.04 nM.

Molecule B10 had a Kd of 1.15 nM.

For B11, binding was put at a Kd of 1.06 nM.

For the molecule B12, the Kd is 1.14 nM.

Another assay deals with T2, extracellular domain of rhesus monkey BCMA (rhesus monkey, UniProt F7FFA0 1-53).
T2 construct: extracellular domain; also called RhBCMA
T2 sequence (F7FFA0 entry or part of it): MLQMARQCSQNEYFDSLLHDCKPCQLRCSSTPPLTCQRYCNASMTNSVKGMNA
As to the kind of experiment: Octet BLI; Fab 200 nM.
B1 displayed a Kd of 4.29 nM.

In the case of B2, the affinity, expressed as Kd, was 3.92 nM.

The molecule B3 came in with a Kd of 9.2 nM.

In turn, B4 had a Kd of 4.53 nM.

As to B5, the Kd came to 3.32 nM.

Molecule B6 yielded an equilibrium dissociation constant (Kd) of 5.08 nM.

For B7, the Kd is 4.83 nM.

For B8, the Kd was 4.41 nM.

The molecule B9 had a Kd of 5.62 nM.

B10 registered a Kd of 5.35 nM.

As for B11, the Kd amounted to 3.85 nM.

For B12, binding was put at a Kd of 3.69 nM.

Another assay has as its target T1, extracellular domain of human BCMA. The experiment in a line: Octet BLI; Fab 200 nM. The source holds these as a separate data set.
For B13, the Kd was found to be 21 nM.

On to B14, for which binding was characterised by a dissociation constant (Kd) of 9.06 nM.

Molecule B15 gave a Kd of 1.43 nM.

In turn, B16 returned a Kd of 18.9 nM.

B17 yielded a Kd of 18.9 nM.

Turning to B18, binding was characterised by a dissociation constant (Kd) of 5.38 nM.

Take B19: the Kd came out at 0.926 nM.

B20 had a Kd of 13.1 nM.

B21 returned a Kd of 18.5 nM.

As to B22, binding was put at a Kd of 14.5 nM.

The molecule B23 returned a Kd of 21.1 nM.

In turn, B24 yielded a Kd of 22.3 nM.

B25 displayed a Kd of 53.1 nM.

Molecule B26 yielded a Kd of 11.7 nM.

As to B27, the affinity, expressed as Kd, was 28.1 nM.

The molecule B28 yielded a Kd of 82.7 nM.

B29 came in with a Kd of 3.8 nM.

In the case of B30, the affinity, expressed as Kd, was 2.85 nM.

The molecule B31 displayed a Kd of 20.4 nM.

B32: the Kd came out at 5.23 nM.

On to B33, for which binding was put at a Kd of 10.5 nM.

With B34, the Kd was 5.45 nM.

Regarding B35, binding was put at a Kd of 7.73 nM.

Molecule B36 showed a Kd of 8.5 nM.

Consider B37, for which binding was put at a Kd of 5.28 nM.

For another assay, the target named is T2, extracellular domain of rhesus monkey …. As to the kind of experiment: Octet BLI; Fab 200 nM. This is another data set of the same source.
B13 came in with a Kd of 32.2 nM.

With B14, the Kd was 19.2 nM.

Molecule B15 returned a Kd of 5.12 nM.

For the molecule B16, the Kd was found to be 13.2 nM.

For the molecule B18, the affinity, expressed as Kd, was 12.9 nM.

With B19, binding was characterised by a dissociation constant (Kd) of 2.31 nM.

On to B20, for which the Kd is 24.5 nM.

Regarding B21, binding was put at a Kd of 35.6 nM.

Turning to B23, binding was put at a Kd of 23.4 nM.

B24 registered a Kd of 28.2 nM.

For the molecule B26, binding was characterised by a dissociation constant (Kd) of 17.1 nM.

For the molecule B27, the Kd was found to be 45.4 nM.

For the molecule B28, the Kd is 70.2 nM.

For the molecule B29, binding was put at a Kd of 7.84 nM.

The molecule B30 had a Kd of 11.1 nM.

For the molecule B31, binding was put at a Kd of 19.9 nM.

On to B32, for which the Kd amounted to 11.1 nM.

With B33, the Kd amounted to 15.1 nM.

B34 yielded a Kd of 13.7 nM.

Turning to B35, the Kd amounted to 10.6 nM.

For B36, binding was characterised by a dissociation constant (Kd) of 9.49 nM.

B37 showed a Kd of 10.4 nM.
